From the DeepSol protein solubility set come the findings set out here.

This data set in a line: soluble on expression in E. coli; label from the status in PepcDB or PDB records.
Regarding “MAHHHHHHMQRYLQRTVPVAPLRLSISGNSSTEGVHADAAPLLESRFLRRLRAEVDREARAEQLCKGTAARAIQQAFRRWAQTRQLQHRHLSIHGIVRPRCEFDPIRAAELDAALCSIQASLRVWASSRLVEARRLKLLQQITSSVLDPACRTTLRCAASIRHINDRQLREVLCRQEAVERRDLLRRHFVFLVCCHQAFFNDPRMWDAGMSIRRIPLYTHHGLLSAETLPVIWGTRTSSSTLNSATEDSVALRGDAVASPLPPESSSFSVTATVDGCIKGWGSPAEPGSSLLEAVGSDWLVGKEEDGGGFDIDAALRLGEYRLLFSPEEWRLLKKLKASSPHPASPLLSSGADGRRAARDAAGLPEAEAGALAAPRGQLQMAPTEAAAKSACSLSYAKAFASALTFLRQPRMVDPSVRCTVQRLNDIRSSTLEMQQELRVHGYLFAAQVAPLLILGFHYQGLARGDADLSCFTTTSAMKTCRPLVAGRVACAATELRRCLIGAVHYSGGAAESVLPVALEEHKCSGKAAARTLSQRLPPAGVSRSMLLPPRAAPTAGLMRDGFANPGTEALYHAPAKTTRRAGGADPRCGSSHTASRHGSAIRVALAAEWSRRLASSADEVGPYWCEFLSSTGLDGLVTAAGRRGETPGEADAAYQTRASLPSPPLPTRVRRGLESHLVHGGSSYLLQDFMPSLMRRRAHSRAGPQPLDAATGSVVVAVACAGASPSTSVSTSTCGMVHAGEWWDAVERLLLREYTNRRELLTNEAVQRSSIDILRCTAHPSADESVAGV”, the “soluble on expression in E. coli” value is listed as “not soluble”.
To “MAHHHHHHMRARRWWHGPYSLLYTLNLLLSLSLSPSHAGGGKEVSTTHTYTHPSTMQRGANVRPIKLAEKVFSTKTVCPTAASQLYVAHGLLGNSGNWATASRHLVEHSALKDKLRRAIAVDMRNHGSSTHSSDHTNAALASDLEALVLREQQELDRAFCDPSSCTTRNAILIGHSMGGLTVMGALLRRANEHHLLTSLVDHCDDVGSTSSYGAWPAEHRRQCIAGMRAVNEEFGFASSQPIAEVLFNNCRASSSLSTGSGNASRIPLLGRVAGAIIVDVTPTMRLGEQRSCADNVKETLERMTQVRLDEIHSYKDATAELIRVGMADEEMRAFVATNIALDPKDKSKPAQWKCNLPVLAGDYGSFQPSITSWFTSSATTMGPASSAAAPRLCTLPVMFVFGGESPYNEPDHRQHISRFFSNATQVEVAGAGHFVHYEKPKEFTDAVAPFIASLISQP” belongs “not soluble”; to “MAHHHHHHMRERKPIRKMKRSRVSDQIIRVEEPDAEEGEASPAKATPVPHFSDRRICINVGGEYITTLASTLCSEPSKFSEWVENNFQGLPRDSMGNPFIDRDPENFRQIISYLRGYELPTATEKIVFLAEDAEYYHIDRLLALINPPAEWRFVSGPGVSSSRKEFSTENILATCGNEPLPQVGKSVFLLRIDKCELVSIGLVGTESPDHDEPLERQTNAIAYRSTGELIRSLNSSSTFFSGNGYKGRDTVMVQVLFKPEGAAQIEFFCNDVKTHETEWLSPVPPLRFAVSLHGVSAVVIERCVAGVKDEDM”, “not soluble”; to “MAHHHHHHMRGKRRQHRELYQAVLREQAAKAQEDAAQRRARLSWKEKLQLSFQEARESVTQLTSAKAGVMALLQHCTASHTAEVALEQGIDVKNVQMVFEKAAASNSVGVEEIVVGYIDAPGASHEEVMAFAEKLHKVCPVAKSMHIEWRQGSADSRRHEDGAVRRADGLHREMEQAASGVEWAESRTGSNLGGRSSAADAASTTSVESMPAGMPGSRRVQSSMSSRATRGGSLRDDEDKLHFPGVEKRDTAWDSTRHGSSRAKEPSTETSTASHRPPPPESASAATTQPGACSSDPASASPFPKP”, “soluble”.
The entry for “MAHHHHHHMSAEQQRLKKMHCEAVTLAEMKQWLGLPLTTAASSSSAAPAAAAVAAAPKSPVEEAVGRDVYDMYGLSMTAVDAYLLRYLRSKNLVIEDAVAKLRRRRAFERTLPMISVTTTTVAALRSGAFHLLDHDLEGRPVLYINVATFTLPTLELDEAQRLLIILLEFMQARCLLKNNEKVAAMQRRRRQHVDATAAASSFANGGRENNGGAAAPAHGAQDVDKETVSDLQEFALLVNEERVPWMMHASFLKNYSTLLSILPKYYPLLLGSVLVLGASLEIRTAIKACVGSSSEDVRNSVQMIEKADLPRYMDASTIPVELGGHKQIVGSAMNFSETVLRHWFTLTSQIEDECVGSDGGIADSKVPTTISAAGAANGHREDGGGAETSHSPPRPLYVPPPPLGMTQRHISRQRHAVELQHLSSSVVGTITGPGSPGPMRPCKYGGSSARNGKHSLMSSAAAANRSTAVTTPHGTPTSQKDQAAATVTLGAGRAEDVTDDGVCSALSGADERDDYAENEGGGAGMHTRTNSGVPTYQLYTAASSLAGSLAVEGEMHLSGLGASHNRHHQGASLYSVASATISREEAAHFADHPDDAVVALRQERRRRQRAEQALYFRDLGVTLDMRNASIIEKELAAIHQDLNVLVAEILVKAEAARKRQKAPPTLKQLLDLTLTAFESVTCTPSSVPAMALAEPAQREAASSSCCSFM” is “not soluble”; for “MAHHHHHHMSAGDTPVSLFLQACNQEGVKTPNPKLVEFFQSHETFDSILEIDLSNNYIGNRGLLAVLGVIEHLSCFRCLNAMDQKLYNSDFSEEAVKGNAVIDRIVEVFKVHPTANSLNLSNNPISNYAGRKLLSLAQVNRRMCLIEVSDTRIDFDLRNKIAKQCEENTRNMWDAEQDENANSCAVFGENLEWVPTQATADLTSLGAGRARRQTVRVEGIDPEAAKNYVPPVHEKSQEDTDMICKLLSHNVLFGFLGSKDILTVAGAMYREEFVKDERIIEFGQTHCDKLYVIQSGEADVIKEGQKVFVKTEGTAVGELELLYDTPAVATVKVSTEVLVAWVLDRETYRNLVMGSCIRRRETYMSMLAKVPFLQSLDAYERMQIADALTSDEFAAGDYIIHYDEEGEWLYIIIEGTVEVIGRDAAGNKTKVCEFHSGDHIGELEFLNKHRTVADIVAVTGVTTAKLNRRHFEMCMGPVMDVLKRNSTSAKYDYYQQVLQQQQQGAPAAVQ” it is “soluble”; for “MAHHHHHHMSCLNVQPVQLPITNKFRNLPAGKPSHRHESTFCRFFSDTTEKECKGSRRNINHRNKSSIFDNVEENDIIDNTKINQYNNVKKRFVSNNSLEFKKTFQKNINYVPNEKYGKKNIPDVRNLYIFSRQELNSDTKERKSSKKISNYSLEKNPNKWGVDVLKYNLPSPKKIYRHVDNLTTCLVPKISEDSFIPKKNKKYYVTHLEKSLCPKENILLLNSKKKLIHLHQSKLEMNCVPKDYEQEINKNKPVFLERNLNNNLIPIVECKRRTFHVNDTCKNKQCSINFSCERKPSPFRSGKRIGYIFTRNDNPTFFF” it is “not soluble”.
To “MAHHHHHHMSDDIMNGDTLSEYRKIHKKNYEERIIKENELIEKQKTEELLNEKKKNEEIYRQLQIDKDREYSKQCYYEINNFQNIHERTYNDSDIRENYTQRLINPSAYSYIDNNMTQNLLDGDMGYTFSQRIRRFFLNK” belongs “not soluble”.
For the sequence “MAHHHHHHMSDEAARQQRSAELADQVRTFFATYAGSAEERLDVVRGYEKCRGDFKKMVREYLLFDNGVEAEVQRLHRLVSTLIELGNLSPTPAWKSTSTPEALLRLEKAMHRERQEAENVLKDMAGSGTGAAGAADGDLSSLQVMIRQRQQSSYESMLNHLESKYVTKKSNARESSSAHVRPHRPLARTNVLPKSTGKPLITGKSGTCAEEASASGIRPGNVGRIPLSTAVIFCFLCYCGRYRSWLNACDLSPHLLTQPPKFPAWLRGQPITVL”, the “soluble on expression in E. coli” value is listed as “soluble”.
The entry for “MAHHHHHHMSEARQIQSMIDFIEREAQEKADELNSAAQEEYDVEKMRLVEAEKVKVRANNEQKLKQVDVGRRVARANFSKAQRLRIMEAQSNIVEQLKENIKTKLMAFVKNTDSYKKLLVSILHEALSAVRTDAIVYTCKNDEPIVTGMLSELEQWYLKTVGTRVSIRMGKEYLNAEEALGGVVVKSHDGHIVCNWTLSSRMRNCVNDQLPTIRYYLFNPESSI” is “not soluble”.
To “MAHHHHHHMSEKKEYINPAGLRLDGRRPQESRRMTLEFGKVLGCDGCCTVMSGLATVCASVYGPREVTNRLESKYNECIITCEVAIAAFAGEKRRAPQRRSKLSEEMSAAVLEVARSVVLLSQYPNSQIHICVEVLRQDGSDKAACINAACLALVDACVAMRDIVYAQTVGLIHAVDVVDLTTEEMRSQCPTICIAVKGHDPSSIVWMESNCRVTSEVVSRLVTVAQKSSEGVFAAALRGPLEEHAAAILKLQGNLGNGD” belongs “not soluble”.
